Biological target: T1, endogenous human iRhom1 (RH-30 cells) (human, UniProt Q96CC6 1-855)
T1 construct: RH-30 cells are described as endogenously negative for iRhom2 but endogenously expressing iRhom1; also called iRhom1 endogenously expressed by RH-30 cells
T1 sequence: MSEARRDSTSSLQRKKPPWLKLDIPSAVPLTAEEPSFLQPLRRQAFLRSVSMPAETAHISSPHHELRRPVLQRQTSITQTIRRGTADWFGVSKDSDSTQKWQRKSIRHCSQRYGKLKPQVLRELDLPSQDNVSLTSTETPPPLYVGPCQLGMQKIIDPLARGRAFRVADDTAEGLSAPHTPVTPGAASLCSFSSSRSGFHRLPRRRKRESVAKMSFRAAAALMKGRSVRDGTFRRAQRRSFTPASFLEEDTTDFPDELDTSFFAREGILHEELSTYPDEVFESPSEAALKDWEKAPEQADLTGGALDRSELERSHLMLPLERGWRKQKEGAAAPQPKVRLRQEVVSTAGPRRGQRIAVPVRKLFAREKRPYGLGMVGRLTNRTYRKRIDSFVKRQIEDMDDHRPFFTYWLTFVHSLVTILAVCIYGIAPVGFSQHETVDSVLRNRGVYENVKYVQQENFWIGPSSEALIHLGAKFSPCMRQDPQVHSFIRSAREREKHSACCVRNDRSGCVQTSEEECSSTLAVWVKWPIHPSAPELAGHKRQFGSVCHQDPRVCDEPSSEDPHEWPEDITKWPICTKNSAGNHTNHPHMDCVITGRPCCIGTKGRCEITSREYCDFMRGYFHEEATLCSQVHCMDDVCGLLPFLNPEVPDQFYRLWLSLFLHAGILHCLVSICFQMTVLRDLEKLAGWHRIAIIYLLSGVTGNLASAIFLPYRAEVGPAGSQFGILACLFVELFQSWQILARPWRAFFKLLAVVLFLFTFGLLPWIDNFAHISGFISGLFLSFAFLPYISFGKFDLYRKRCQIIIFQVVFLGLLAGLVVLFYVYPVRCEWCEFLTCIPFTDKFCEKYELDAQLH
Experiment: FACS on RH-30 cells (endogenously negative for iRhom2, endogenously expressing iRhom1)
Protocol: In brief, human RPMI-8226 cells (Deutsche Sammlung von Mikroorganismen und Zellkulturen, Germany), THP-1 cells (American Type Culture Collection, USA) and RH-30 cells (Deutsche Sammlung von Mikroorganismen und Zellkulturen, Germany) were harvested with 10 mM EDTA in PBS, washed and resuspended in FACS buffer (PBS, 3% FBS, 0.05% sodium azide), and seeded in Nunc U-bottom 96-well plates (Thermo Fisher Scientific, USA) at approximately 2×10⁵ cells per well. In order to pellet cells and remove supernatants, the plates were centrifuged at 1,500 rpm and 4° C. for 3 minutes. For primary staining, cells were resuspended in 100 μl per well of either FACS buffer alone (controls) or […] of the antibodies of the invention in FACS buffer and incubated on ice for 1 hour. Afterwards, plates were centrifuged at 1,500 rpm and 4° C. for 3 minutes and washed twice with 200 μl per well of FACS buffer. For secondary staining, cells were spun down and resuspended in 100 μl per well of PE-conjugated goat anti-human IgG F(ab′)2 detection fragment (Dianova, Germany) diluted 1:100 in FACS buffer. Protected from light, the cell suspensions were incubated on ice for 1 hour. […] Finally, cells were resuspended in 150 μl per well of FACS buffer and analyzed using a BD Accuri™ C6 Plus flow cytometer (Becton Dickinson, Germany).

B1: humanized antibody 42-B-02 (antibody, V domains shown)
VH: QVTLRESGPALVKPTQTLTLTCTFSGFSLSTFGRGVGWIRQPPGKALEWLAHIWWDDEKYYNSALKSRLTISKDTSKNQVVLTITNMDPVDTATYYCARIQNYGSNYWYFDVWGQGTLVTVSS
VL: AIQLTQSPSSLSASVGDRVTITCRASSRISYMFWYQQKPGKAPKVLIYDTSNLASGVPSRFSGSGSGTDYTLTISSLQPEDFATYYCQQWNSYPLTFGQGTKLEIK
notes: Tested as whole humanized antibody from transient expression of heavy chain/kappa light chain pairs in CHO cells, detected with anti-human IgG; the general methods speak of human IgG1/Kappa; also called clone 42-B-02
B1: no binding (tested: 3 µg/ml).
